Results taken from PMC10944524.
Values belong to the substance of their own block, whether it stands above or below them.

Assays:
[1] = target: Unmasked Catcher (Masked SpyCatcher003 after cleavage by superTEV protease); test: covalent coupling (isopeptide bond) followed by SDS-PAGE and densitometry; Masked SpyCatcher003, before or after cleavage by superTEV protease, with SpyTag003-MBP; both partners at 5 µM, 37 °C, PBS pH 7.4, time course
[2] = target: Masked SpyCatcher003 (N-terminal His6 tag-SpyCatcher003-TEV protease cleavage site-SpyTag003 D117A); test: as above
[3] = target: DoubleCatcher (N-terminal His6 tag-TEV protease cleavage site-two SpyCatcher003 moieties connected by a (GSG)3 spacer-TEV protease cleavage site-SpyTag003 DA); test: covalent coupling (isopeptide bond) followed by SDS-PAGE and densitometry; DoubleCatcher 2.5 µM with SpyTag003-mClover3 5 µM, no TEV protease, PBS pH 7.4, 37 °C, time course
[4] = target: unmasked DoubleCatcher:SpyTag003-MBP; test: covalent coupling (isopeptide bond) followed by SDS-PAGE and densitometry; step 1: DoubleCatcher with two-fold excess SpyTag003-MBP for 2 h, excess removed on bead-immobilized SpyCatcher003; step 2: superTEV protease at 34 °C, then 2 µM of the cleaved construct with 10 µM SUMO-SpyTag003, time course

Substance: SpyTag003 linked to maltose-binding protein (MBP)
half-time of reaction (t1/2) [1]: 2.7 min
percent reacted [1]: > 99%
percent reacted after 60 min [2]: 3.7%

Substance: SpyTag003 linked to the green fluorescent protein mClover3
half-time of reaction (t1/2) [3]: 0.58 min
percent reacted after 1 h [3]: 91%

half-time of reaction (t1/2) [4]: 3.6 min
percent reacted [4]: > 98%
Substance: SpyTagged Small Ubiquitin-like Modifier (N-terminal His6 tag-SUMO protein-SpyTag003)
